The supplement of paper PMC9112550, “Optimization of the antimicrobial peptide Bac7 by deep mutational scanning” (BMC Biology, 2022)

tested on: Escherichia coli TOP10; assay: shrunken log2 fold change of peptide-encoding DNA abundance (4.5 h post-induction vs induction); higher = less antimicrobial activity (less host growth inhibition); conditions: time post-induction: 4.5 h; library: site-saturation at positions 5, 18, 19, 20
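Further: peptides expressed intracellularly from a pBAD plasmid library in pooled LB shake-flask culture, induced with 0.3% L-arabinose, DNA abundance read by NGS, three biological replicates, DESeq2 with apeglm shrinkage.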

| Sequence | shrunken log2 fold change |
| --- | --- |
| RRIRMRPPRLPRPRPRPGMRPRP | 1.54 |
| RRIRCRPPRLPRPRPRPTCTPRP | -0.2 |
| RRIRERPPRLPRPRPRPEHRPRP | -0.0185 |
| RRIRWRPPRLPRPRPRPYLGPRP | -0.616 |
| RRIRMRPPRLPRPRPRPDQTPRP | 0.0101 |
| RRIRQRPPRLPRPRPRPAIGPRP | 0.216 |
| RRIRVRPPRLPRPRPRPGLAPRP | 0.166 |
| RRIRTRPPRLPRPRPRPMNRPRP | -0.0804 |
| RRIRARPPRLPRPRPRPKIMPRP | -0.0664 |
| RRIRIRPPRLPRPRPRPLCSPRP | -0.682 |
| RRIRWRPPRLPRPRPRPYCKPRP | -0.864 |
| RRIRTRPPRLPRPRPRPMTPPRP | 0.126 |
| RRIRTRPPRLPRPRPRPRITPRP | -0.474 |
| RRIRGRPPRLPRPRPRPWGDPRP | 0.41 |
| RRIRMRPPRLPRPRPRPNCRPRP | -0.135 |
| RRIRIRPPRLPRPRPRPMNMPRP | -0.375 |
| RRIRIRPPRLPRPRPRPCWMPRP | -0.222 |
| RRIRNRPPRLPRPRPRPIQQPRP | -0.000431 |
| RRIRNRPPRLPRPRPRPHVYPRP | -0.229 |
| RRIRIRPPRLPRPRPRPMWPPRP | 0.128 |
| RRIRRRPPRLPRPRPRPKKYPRP | -0.103 |
| RRIRHRPPRLPRPRPRPLGCPRP | 0.116 |

| Sequence | shrunken log2 fold change |
| --- | --- |
| RRIRARPPRLPRPRPRPLHKPRP | 0.408 |
| RRIRERPPRLPRPRPRPRRHPRP | 0.411 |
| RRIRPRPPRLPRPRPRPFGHPRP | -0.0335 |
| RRIRMRPPRLPRPRPRPKQPPRP | 2.34 |
| RRIRLRPPRLPRPRPRPHSSPRP | 0.0594 |
| RRIRVRPPRLPRPRPRPSRVPRP | 0.0356 |
| RRIRHRPPRLPRPRPRPYKAPRP | -0.484 |
| RRIRCRPPRLPRPRPRPNTKPRP | -0.358 |
| RRIRIRPPRLPRPRPRPLTNPRP | -0.572 |
| RRIRVRPPRLPRPRPRPCGMPRP | -0.00417 |
| RRIRKRPPRLPRPRPRPQQAPRP | -0.0621 |
| RRIRQRPPRLPRPRPRPPIIPRP | -0.0647 |
| RRIRVRPPRLPRPRPRPTPVPRP | 0.465 |
| RRIRRRPPRLPRPRPRPPGFPRP | 0.468 |
| RRIRIRPPRLPRPRPRPYIYPRP | -0.176 |
| RRIRTRPPRLPRPRPRPDYPPRP | 0.0242 |
| RRIRDRPPRLPRPRPRPYVVPRP | -0.159 |
| RRIRYRPPRLPRPRPRPSQHPRP | -0.683 |
| RRIRRRPPRLPRPRPRPPNCPRP | 0.15 |
| RRIRIRPPRLPRPRPRPILDPRP | -0.797 |
| RRIRTRPPRLPRPRPRPQYCPRP | -0.0968 |
| RRIRPRPPRLPRPRPRPACAPRP | 0.593 |

| Sequence | shrunken log2 fold change |
| --- | --- |
| RRIRCRPPRLPRPRPRPQPAPRP | 0.632 |
| RRIRARPPRLPRPRPRPMCRPRP | 0.0586 |
| RRIRFRPPRLPRPRPRPMLIPRP | -0.217 |
| RRIRLRPPRLPRPRPRPCDKPRP | -0.304 |
| RRIRCRPPRLPRPRPRPGKMPRP | -0.055 |
| RRIRNRPPRLPRPRPRPKQGPRP | 0.0554 |
| RRIRQRPPRLPRPRPRPSIEPRP | -0.373 |
| RRIRIRPPRLPRPRPRPCQMPRP | -0.111 |
| RRIRDRPPRLPRPRPRPFIAPRP | -0.237 |
| RRIRLRPPRLPRPRPRPDSGPRP | -0.00166 |
| RRIRSRPPRLPRPRPRPLEMPRP | -0.314 |
| RRIRFRPPRLPRPRPRPQEGPRP | -0.00638 |
| RRIRKRPPRLPRPRPRPTCFPRP | 0.259 |
| RRIRNRPPRLPRPRPRPRMCPRP | 0.138 |
| RRIRIRPPRLPRPRPRPKYWPRP | -0.678 |
| RRIRLRPPRLPRPRPRPCLGPRP | -0.25 |
| RRIRKRPPRLPRPRPRPPRQPRP | 0.82 |
| RRIRARPPRLPRPRPRPLHGPRP | 0.155 |
| RRIRTRPPRLPRPRPRPAIVPRP | 0.00191 |
| RRIRWRPPRLPRPRPRPTEQPRP | 0.357 |
| RRIRRRPPRLPRPRPRPYCRPRP | -0.503 |
| RRIRWRPPRLPRPRPRPNFTPRP | -0.0319 |

| Sequence | shrunken log2 fold change |
| --- | --- |
| RRIRARPPRLPRPRPRPDHHPRP | -0.201 |
| RRIRWRPPRLPRPRPRPRAYPRP | 0.224 |
| RRIRCRPPRLPRPRPRPPFVPRP | 0.145 |
| RRIRARPPRLPRPRPRPDWQPRP | 0.281 |
| RRIRWRPPRLPRPRPRPWVIPRP | 0.00419 |
| RRIRHRPPRLPRPRPRPLIAPRP | -0.261 |
| RRIRIRPPRLPRPRPRPPNRPRP | -0.462 |
| RRIRNRPPRLPRPRPRPEFDPRP | 0.0248 |
| RRIRTRPPRLPRPRPRPLMKPRP | -0.26 |
| RRIRCRPPRLPRPRPRPMHGPRP | 0.0358 |
| RRIRARPPRLPRPRPRPRDAPRP | 0.91 |
| RRIRFRPPRLPRPRPRPPNHPRP | -0.0407 |
| RRIRLRPPRLPRPRPRPDKFPRP | -0.26 |
| RRIRQRPPRLPRPRPRPSRYPRP | -0.00452 |
| RRIRGRPPRLPRPRPRPESNPRP | 2 |
| RRIRLRPPRLPRPRPRPTDYPRP | -0.286 |
| RRIRQRPPRLPRPRPRPDAHPRP | -0.0825 |
| RRIRQRPPRLPRPRPRPGKKPRP | 0.0943 |
| RRIRGRPPRLPRPRPRPITNPRP | 0.201 |
| RRIRGRPPRLPRPRPRPQILPRP | -0.0843 |
| RRIRCRPPRLPRPRPRPSSHPRP | -0.0983 |
| RRIRARPPRLPRPRPRPGRRPRP | 0.339 |

| Sequence | shrunken log2 fold change |
| --- | --- |
| RRIRVRPPRLPRPRPRPDHAPRP | 0.27 |
| RRIRDRPPRLPRPRPRPCFVPRP | 0.0784 |
| RRIRMRPPRLPRPRPRPGGCPRP | 0.888 |
| RRIRKRPPRLPRPRPRPYPRPRP | -0.00783 |
| RRIRWRPPRLPRPRPRPNRGPRP | 0.172 |
| RRIRYRPPRLPRPRPRPTNAPRP | -0.24 |
| RRIRGRPPRLPRPRPRPTHYPRP | 0.525 |
| RRIRKRPPRLPRPRPRPRCPPRP | 0.52 |
| RRIRLRPPRLPRPRPRPLFKPRP | -0.188 |
| RRIRGRPPRLPRPRPRPGDEPRP | 1.81 |
| RRIRGRPPRLPRPRPRPTKTPRP | 0.0741 |
| RRIRYRPPRLPRPRPRPEYPPRP | -0.01 |
| RRIRQRPPRLPRPRPRPQNCPRP | 0.0179 |
| RRIRYRPPRLPRPRPRPKASPRP | -0.131 |
| RRIRSRPPRLPRPRPRPGEWPRP | -0.0156 |
| RRIRLRPPRLPRPRPRPFFLPRP | -0.282 |
| RRIRQRPPRLPRPRPRPASEPRP | -0.019 |
| RRIRVRPPRLPRPRPRPHFHPRP | 3.23 |
| RRIRDRPPRLPRPRPRPDGMPRP | 0.232 |
| RRIRVRPPRLPRPRPRPRGPPRP | 0.946 |
| RRIRVRPPRLPRPRPRPKAYPRP | 0.0199 |
